Test results taken from article PMC8612989 (Environmental microbiology reports, 2021).

What was measured:
[1] = target: Ayg1p chain-shortening enzyme (Aspergillus fumigatus, UniProt Q9UVV1); experiment: T4HN production detected in yeast co-expressing alb1 and ayg1; format: cell-based; conditions: S. cerevisiae INVSc1-npgA, YWA1 formed in the cell by Alb1p; 30 °C
[2] = system: O=C1C[C@H](O)Cc2cc(O)cc(O)c21; experiment: purified protein; conditions: conditions not separately told (YWA1 assay: pH 6.0, 30 °C)
[3] = target: T1, Arp1p with His-tag (Arp1p-HT), Arp1p dehydratase of Aspergillus fumigatus (Aspergillus fumigatus (strain B-5233)), O14434; experiment: SEC; conditions: remark: other sources report otherwise
T1 chain: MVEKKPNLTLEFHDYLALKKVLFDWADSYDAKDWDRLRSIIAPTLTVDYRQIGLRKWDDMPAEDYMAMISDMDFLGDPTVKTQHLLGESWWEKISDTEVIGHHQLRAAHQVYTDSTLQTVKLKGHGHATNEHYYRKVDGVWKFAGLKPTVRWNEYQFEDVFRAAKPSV

## CC1(O)CC(=O)c2c(cc3cc(O)cc(O)c3c2O)O1 (stereo not shown) [YWA1]
[1]
  T4HN production detected in yeast co-expressing alb1 and ayg1: co-transformed into yeast (S. cerevisiae INVSc1-npgA/pYES-alb1+p425-ayg1) and T4HN production was detected

## Arp1p (Arp1p-HT) dehydratase (Aspergillus fumigatus Af293)
[2]
  Km: 15.7 µM
  kcat: 2.7 s⁻¹

B1: Arp1p with His-tag (Arp1p-HT), Arp1p dehydratase of Aspergillus fumigatus, O14434 1-168 (enzyme)
chain: T1 chain
[3]
  stoichiometry N: 3
